According to paper PMC6162344:

What was measured:
[1] = target: Taxol-stabilised microtubules (TIRF) (pig) (UniProt P02550); assay: TIRF microscopy of single particles on microtubules
CENP-OPQU (human) = CENP-OPQU (human) (UniProt Q9BU64); assay: AUC
Sequence of CENP-OPQU (human) (Q9BU64 whole entry, chain 1 of 4): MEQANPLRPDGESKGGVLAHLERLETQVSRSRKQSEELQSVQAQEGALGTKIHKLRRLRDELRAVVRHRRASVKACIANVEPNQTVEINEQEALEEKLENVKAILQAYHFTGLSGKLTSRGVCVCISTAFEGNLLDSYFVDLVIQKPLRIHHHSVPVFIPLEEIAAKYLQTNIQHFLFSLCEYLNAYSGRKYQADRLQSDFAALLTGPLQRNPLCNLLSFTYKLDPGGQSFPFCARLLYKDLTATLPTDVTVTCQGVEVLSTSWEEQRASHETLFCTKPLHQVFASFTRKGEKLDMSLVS
Sequence of CENP-OPQU (human) (Q6IPU0 whole entry, chain 2 of 4, further chain): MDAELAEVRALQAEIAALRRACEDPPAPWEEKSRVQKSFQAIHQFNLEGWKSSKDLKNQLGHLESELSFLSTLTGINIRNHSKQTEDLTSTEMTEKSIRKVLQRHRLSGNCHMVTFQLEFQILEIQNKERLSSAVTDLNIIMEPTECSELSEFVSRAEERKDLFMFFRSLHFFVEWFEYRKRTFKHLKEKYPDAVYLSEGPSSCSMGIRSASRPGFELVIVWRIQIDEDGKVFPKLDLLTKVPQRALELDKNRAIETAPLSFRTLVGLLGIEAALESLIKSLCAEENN
Sequence of CENP-OPQU (human) (Q7L2Z9 whole entry, chain 3 of 4, further chain): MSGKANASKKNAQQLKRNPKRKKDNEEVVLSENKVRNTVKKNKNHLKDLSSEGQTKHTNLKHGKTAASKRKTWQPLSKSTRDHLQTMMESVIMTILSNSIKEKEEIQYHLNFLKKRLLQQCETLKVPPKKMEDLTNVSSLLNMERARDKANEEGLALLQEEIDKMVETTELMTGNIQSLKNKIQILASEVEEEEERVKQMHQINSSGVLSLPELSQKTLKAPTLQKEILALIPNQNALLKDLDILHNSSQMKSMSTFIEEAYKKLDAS
Sequence of CENP-OPQU (human) (Q71F23 whole entry, chain 4 of 4, further chain): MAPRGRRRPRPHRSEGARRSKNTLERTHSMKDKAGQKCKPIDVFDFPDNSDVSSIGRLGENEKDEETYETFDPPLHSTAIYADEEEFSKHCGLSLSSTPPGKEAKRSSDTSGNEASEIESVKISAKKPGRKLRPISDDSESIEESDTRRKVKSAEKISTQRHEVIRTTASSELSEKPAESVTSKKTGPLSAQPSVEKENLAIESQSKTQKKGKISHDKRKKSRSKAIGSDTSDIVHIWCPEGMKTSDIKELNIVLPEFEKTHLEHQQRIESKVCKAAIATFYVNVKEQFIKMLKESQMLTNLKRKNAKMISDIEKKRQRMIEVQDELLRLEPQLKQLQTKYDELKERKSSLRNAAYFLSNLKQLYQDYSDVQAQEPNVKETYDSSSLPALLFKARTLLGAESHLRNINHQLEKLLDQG

Sequence of CENP-OPQU (Q9BU64 whole entry): as the sequence (Q9BU64 whole entry, chain 1 of 4) above
Sequence of CENP-OPQU (Q6IPU0 whole entry): as the sequence (Q6IPU0 whole entry, chain 2 of 4, further chain) above
Sequence of CENP-OPQU (Q7L2Z9 whole entry): as the sequence (Q7L2Z9 whole entry, chain 3 of 4, further chain) above
Sequence of CENP-OPQU (Q71F23 whole entry): as the sequence (Q71F23 whole entry, chain 4 of 4, further chain) above

Row | mean time associated [1] [s] | stoichiometry N (CENP-OPQU (human)) | Substance
1 | 131 |  | CENP-OPQU (from UniProt Q9BU64 1-300; Q6IPU0 1-288; Q7L2Z9 1-268; Q71F23 1-418) (complex)
2 |  | 1 | CENP-R (co-expressed or co-lysed with CENP-OPQU subunits) (from UniProt Q13352 1-177) (natural protein)
